Here are results for nine sequences from article PMC4794571.

In data set [1] the target is Cy3-IgE (direct labeling) (UniProt P01854). As to the kind of experiment: microarray fluorescence. The conditions noted are these: direct label, PBSMTB for IgE microarrays (full recipe not in material; PBS-based wash: 8.1 mM Na2HPO4, 137 mM NaCl, 1 mM MgCl2, pH 7.4), temperature not stated, thrombin ….
Data set [2] addresses biotin-IgE (indirect labeling) (UniProt P01854). As to the kind of experiment: microarray fluorescence. To be noted: indirect label, PBSMTB for IgE microarrays (full recipe not in material; PBS-based wash: 8.1 mM Na2HPO4, 137 mM NaCl, 1 mM MgCl2, pH 7.4), temperature not stated, thrombin ….
The target of data set [3] is IgE (cited assays) (human) (UniProt P01854). In words: filter binding. The conditions noted are these: PBSMTB for IgE microarrays (full recipe not in material; PBS-based wash: 8.1 mM Na2HPO4, 137 mM NaCl, 1 mM MgCl2, pH 7.4), temperature not stated, thrombin …, cited from earlier work.
The target is the same in data set [4]. In words: SPR. The conditions noted are these: PBSMTB for IgE microarrays (full recipe not in material; PBS-based wash: 8.1 mM Na2HPO4, 137 mM NaCl, 1 mM MgCl2, pH 7.4), temperature not stated, thrombin …, cited from earlier work.
For data set [5] the target is unchanged. In words: fluorescence anisotropy. To be noted: not immobilized; PBSMTB for IgE microarrays (full recipe not in material; PBS-based wash: 8.1 mM Na2HPO4, 137 mM NaCl, 1 mM MgCl2, pH 7.4); temperature not stated; thrombin …; cited from earlier work. For orientation: Fluorescence polarisation rises when a labelled molecule tumbles more slowly, as on binding a larger partner.

The mark [6] stands for this setting: T linker, T linker to array surface.
The mark [7] stands for this setting: A linker, A linker to array surface.
Setting [8] is: C linker, C linker to array surface.
Where [9] appears, read: G linker, G linker to array surface.

As a reminder, the Kd is the concentration at which binding is half-saturated. For “AGGGCACGTTTATCCGTCCCTCCTAGTGGCGTGCCCT [IgE_D17-4_DM1_37]”, the dissociation constant Kd in data set [1] (setting [6]) is 0.0823 µM; in data set [2] (setting [6]), 0.0299 µM.
In data set [2] (setting [6]), “CACGTTTATCCGTCCCTCCTAGTGGCGTG [IgE_17-1 (IgE_D17-1)]” displayed a Kd of 0.0734 µM.
On to “CACGTTTATCCGTCCCTCCTAGTGGCGTG [IgE_17-1, cited assay]”, for which the dissociation constant (Kd) in data set [3] (solution) is 0.082 µM.
Consider “GGGGCACGTTTATCCGTCCCTCCTAGTGGCGTGCCCC [IgE_17-4 (IgE_D17-4), T linker]”, for which the Kd in data set [1] (D/P 2.4, T linker 10-15, T linker to array surface) came out at 0.0663 µM; in data set [2] (setting [6]), 0.0295 µM.
For the sequence “GGGGCACGTTTATCCGTCCCTCCTAGTGGCGTGCCCC [IgE_17-4, A linker]”, the dissociation constant Kd in data set [1] (setting [7]) amounted to 0.0637 µM; in data set [2] (setting [7]) it was 0.0309 µM.
As to “GGGGCACGTTTATCCGTCCCTCCTAGTGGCGTGCCCC [IgE_17-4, C linker]”, the values for the dissociation constant (Kd) in data set [1] (setting [8]) and in data set [2] (setting [8]) were 0.0618 µM and 0.0308 µM, respectively.
In the case of “GGGGCACGTTTATCCGTCCCTCCTAGTGGCGTGCCCC [IgE_17-4, G linker]”, the Kd came to 0.0865 µM in data set [1] (setting [9]) and 0.0295 µM in data set [2] (setting [9]).
Turning to “GGGGCACGTTTATCCGTCCCTCCTAGTGGCGTGCCCC [IgE_17-4, cited assays]”, the Kd was 0.0748 µM in data set [4] (aptamer immobilized on surface), 0.0047 µM in data set [4] (aptamer not immobilized), 0.009 µM in data set [3] (not immobilized) and 0.015 µM in data set [5].
In the case of “TGGGCACGTTTATCCGTCCCTCCTAGTGGCGTGCCCC [IgE_D17-4_SM1]”, the dissociation constant Kd in data set [1] (setting [6]) amounted to 0.0799 µM; in data set [2] (setting [6]), 0.0288 µM.
